From the DeepSol protein solubility set

Experiment: soluble on expression in E. coli; label from the status in PepcDB or PDB records

Q: With “MSCYIYWDKIKRIASRLEGMNYHFDEMDTSGVMPLLDEIEEIAHDSTIDFESAKHILDDAEMNHALSLIRKFYVNLGMKLQMEKAQEVIESDSPWETLRSFYFYPRYLELLKNEAALGRFRRGERAVFIGGGPLPLTGILLSHVYGMRVNVVEIEPDIAELSRKVIEGLGVDGVNVITGDETVIDGLEFDVLMVAALAEPKRRVFRNIHRYVDTETRIIYRTYTGMRAILYAPVSDDDITGFRRAGVVLPSGKVNNTSVLVFKCPDKGELNSKLEGKPIPNPLLGLDSTRTGHHHHHH” as the sequence, how does the “soluble on expression in E. coli” value read?
A: soluble

Q: With “MSLGGSAMYHAQLGREYHEKALKYRSLAMRSLAHSGTSHSLDLHGATVREAKTIVRERVAAWWAKEADTSPNSIRPFVIVTGRGNHSIGLEARLLPAIVRLLQQDHWRFDAEHGQITVYGINRHSKEGHHHHHH” as the sequence, how does the “soluble on expression in E. coli” value read?
A: soluble

Q: Which “soluble on expression in E. coli” value does the source give for “MTVVIGVLALQGAFIEHVRHVEKCIVENRDFYEKKLSVMTVKDKNQLAQCDALIIPGGESTAMSLIAERTGFYDDLYAFVNPSKVTWGTCAGLIYISQQLSNEAKLVKTLNLLKVKVKRNAFGRQAQSSTRICDFSNFIPHCNDFPATFIRAPVIEEVLDPEHVQVLYKLDGKDNGGQELIVAAKQKNNILATSFHPELAENDIRFHDWFIREFVLKNYSK” here?
A: not soluble

Q: With “PIFTLNTNIKATDVPSDFLSSTSALVGNILSKPGSYVAVHINTDQQLSFGGSTNPAAFGTLMSIGGIEPSRNRDHSAKLFDHLNTKLGIPKNRMYIHFVNLNGDDVGWNGTTF” as the sequence, how does the “soluble on expression in E. coli” value read?
A: soluble

Q: With “MAHHHHHHMQRDVYASLIKKRHKQMVPLLIHQVSGDITRENIFDEVFHGYKLRRIVLMTHMAATPATLPRLPRDIIVSDFDKLKAIHQPHFHYKLLPLLCTDFEAFSALQGICASANSPFTIEDRKDPQGLTHRLSNGCSERQALCEFFDPHIAPAEKLVPVFSRKLPISAVVFDGLLLKQNYPKVAALLTVHEAASEKSIIERAIMRDFFVSPLYTKVSGNSDVAQSLRLVHHCTHFMALKRAVGSDAPSRQSLMRLAAEKKLFMYEKIGDEYQFVH” as the sequence, how does the “soluble on expression in E. coli” value read?
A: soluble

Q: With “LSKGTRDRKNIYVSPEEMARQQRFIDEIKELNYRKEVKTGKKKLYCLNTFGCQMNEHDSEKLAGMLAEMGYAETDNVNESDLVIYNTCCVRENAELKVYGHLGMLKPLKNQKPDLVIAVCGCMMQQPEVVEHIKKTYSHVDLIFGTHNLYKFPELLYSAMDSQTTVVDVWDCDGQIAENVAIERKDGVKAWVTVMYGCNNFCTYCIVPYVRGRERSRSMDDILEEVRMLGRQGFKEITLLGQNVNSYGKDIGDGTSFAELIREVNKIPGIERIRFTTSHPKDLSDDLIYAMRDCEKVCEHLHLPFQAGSTRILKLMNRKYTKEDYINLVAKIKENIPDIALTTDIIVGFPGETEEDFSDTLDILEKVRFDNAYTFLYSKRTGTPAAKMEDQVPEEVKKERFQRLLETQNRISKEINDTFLGKVVEVLVEGVSKTNDKIFTGRTRGNKVVNFEADASLIGKLVNVRINTVKTWSLEGSIVR” as the sequence, how does the “soluble on expression in E. coli” value read?
A: soluble

Q: For “MVVFVQSRKRWTYSSAHLLVEEYPSKKVDFKEFASKLTEDEINLRVMPIFWVAGHDNAVLSSTISDSTVALLSRWDVIAAMEAVSRYKVTSMYLTFDMYWQILEHPERELEIFEDLYTFKLCEKGLTVQLREKWKEVAGAILREARTS”, which “soluble on expression in E. coli” value is on record?
A: not soluble

Q: Which “soluble on expression in E. coli” value does the source give for “MEMKNVKGTKDYLPEEQVLRNKIKRACEDTFERYGCKPLETPTLNMYELMSYKYGGGDEILKEIYTLQDQGKRNLALRYDLTIPFAKVVAMNPNIRLPFKRYEIGKVFRDGPIKQGRFREFIQCDVDIVGVESVMAEAELMSMAFELFRTLNLEVTIQYNNRKLLNGILESINIPTERTSDVILSLDKIEKIGIDGVRKDVLERGISEEMADTICNTVLSCLKLTIADFKEAFNNPLVADGVNELQQLQQYLIALGINENAIFNPFLARGLTMYTGTVYEIFLKDGSITSSIGSGGRYDNIIGAFRGDNMNYPTVGISFGLDVIYTALSQKETISSTADVFIIPLGTELQCLQIAQQLRSTTSLKVELELAGRKLKRALNYANKENIPYVLIIGEDELSTETVVLRNMKEGSEVKVPLSSLKDNTFNNYCNIPIKL” here?
A: soluble

Q: For “MYTKILGTGSYLPVQVRSNADLEKMVDTSDEWIVTRTGIRERRIAGLDETVATMGFQAAEKALEMAGIDKDDIGLIIVATTSSSHAFPSSACQVQRMLGIKDAASFDLAAACAGFTYALSVADQYVKSGAVKHAIVIGSDVLSRALDPEDRGTIILFGDGAGAVVLGASEQPGIMSTHLHADGRYGELLALPYPDRQQDQPAYVTMAGNEVFKVAVTELAHIVDETLQANNLDRTALDWLVPHQANLRIISATAKKLGMGMDKVVITLDRHGNTSAASVPSAFDEAVRDGRIQRGQLVLLEAFGGGFTWGSALVRF”, which “soluble on expression in E. coli” value is on record?
A: not soluble

Q: With “MAHHHHHHMNSTDTKQSAGYFKEKATIGLSSFSGDEIVKAILKTTSHLLKAPKEKYMQKLVAASYGQYGSGLREGLPINEFIVRELEKRSHTHNWIVVLKTMVSFHRLMCDASDSMVETICYYRHVFRASNIKNLADTADGAGQAYFIAQYMTYLEERCVMQSALGKGRRVEIREFEEYLETLNAKSLQPVFEILLRLFEAVPAVEYREAVVNNFCTLEAYQLLVRDGKQLFQHLAKRVIFILDGFEDFSLPEKRRWFDLYRRYASAFASVKQYFDSMLCSSRVFLEPVPKLKPLPESLLTRLEGDIRASETAKEGLCTLESLGICSREDSRVDSKEEKIRPPRAPEPAVVNQSEAVTALTPAAPTVSLDDLFVPSQEPTKPVQPASCPASWTPAPLAATSFQQGSEQFQWETGVPQNWGSGGHITLQAIATPPVPPPQHAFSGGAPPPAGEGALYPLVQSALKQPPPPVQFKKPADPLKDLYNSCHWQSN” as the sequence, how does the “soluble on expression in E. coli” value read?
A: not soluble

Q: For “MGSDKIHHHHHHMKAYYHLPGLFEFYELYKEFLPLYRKHREYFYDWCDIGSIYGAPADCIWGGGRVGFGEHDLKEVLKLMQEYGISARLTFSNSLLTKEHLPDKKCNELCRIFDIGRDNERSRGFGNGIIIYSDILLDYIKENYPDFYFVSSTTKVLTDFSEFKNELNREEFRYVVPDFRLNKSFDNLKALSQHQKEKVEFLCNECCWFGCTDRKKCYETVSRKNLGVDCPEHYCVAPDSGQGYLFSKAMENPGFIGVYDIKNTYLPMGFSNFKIEGRGLGSAMILEFLLYYMTKPQYQIHVREHIYLDNMLDLF”, which “soluble on expression in E. coli” value is on record?
A: not soluble

Q: Which “soluble on expression in E. coli” value does the source give for “MQHIYVPYHVRDHPMSSVCERFERELRRGAIQLEVICLLENERYGYEIVKKLKESGFRVEEGTLYPLLRRLEGEGILSSRWSTDDTRPRKYYTVTDYGKRVRKKWLELFRSINRSLEDLTEVDQ” here?
A: not soluble

Q: With “MENEVVFFCRKCNHHLFAKNPMINTLKVISEMDCPNCGEEGYHNWILSHIGDSEKEKENYNWKLEHHHHHH” as the sequence, how does the “soluble on expression in E. coli” value read?
A: soluble

Q: With “MGSDKIHHHHHHALGGCGLVPKQPITQQPMTALPPMPPQAQSPGSIFNPGYAGRPLFEDQRPRNVGDILTIVIQENVNATKSSGANANRSGNTNFNVPTAGFLGGLFGKTNLSATGANVFSGTGGANASNTFNGTITVTVTGVLPNGNLMVSGEKQMLINQGDEFVRFSGVVNPNTISNLNAVYSTQVADAKIEYSAKGYLNEAENMGWLQRFFLNVSPW” as the sequence, how does the “soluble on expression in E. coli” value read?
A: not soluble

Q: With “MSLSQAHFSSWRGHQEFLAPHLIEGRAVRAFIGWAGVMIYDPTLDVIALAKEYARQYQCFAETCGRCAPGKFGGKILFDLLEKIDQGRGEESDLERLVEVGKLMMTTSKCEVGKTTPLPILDLLEAYRPLFVEALGNRSRKERSKKERYIAKITAPCIDACPAHVDIPAYIEGVRDHLLGDSLAATRKSMPLAQVCGRVCPHPCESACRRGDLDEPISIMELKRLGADYEKERHGGFIHPYPPKPRRKDKRVAIIGAGPAGLSSAYYLALEGIMSDVFEALPVLGGEVSVGVPEYRMPIDRYYHDIEAIKSLGVSFWTNHFVSAKELDEMRQKYDAIILATGARISKKLGVKGEEESLGGYAPAIPWLDQINLATKFNLAALPDLRGKSVVCVGGGFTSMDVVRCAVRLGAKRIVMLYRRDEATLIQNTSKEEYHEALEEGVEFLFQCAVQEIKSCGGEIKALLVEEYEVVYEEGARKPSLRRIEREPLFLECDLLIPAVSQEVDRSFIPKEWNLESTSWGSFKTNGKDFSTTLRGVFAAGDCEKGPLTIVNAVGQGKRAASVVSRFLEDGEITLTPEEEMEDWLKKEGVYDRSMPVVGWLAGLVRQESHKEEPLKRREDFREVNQGLSMQEAFAESERCMRCYYISMVALEGHHHHHH” as the sequence, how does the “soluble on expression in E. coli” value read?
A: not soluble

Q: For “MSLQGKFQPTWESLANYKIPEWFRNVKFGIWAHWGPQCVEGSGDWMARSLYMENSPEYRHHIANYGHPSEFGFKDIIPLWKAEKWDPDKLVAFYKKIGAQYFFALGNHHDNMDLWDSKYQPWNSVNMGPKKDILKGWERAARKHGLYFGVSLHADHAWSWYETSQRHDTQGPKKGIPYDGKLTKADGKGKWWEGYDPQDLYAQNHPLSQDSWDNGTIHRQWAWGNGVCLPTQEYCTNFYNRTLDVINRYNPDLLYFDVTVAPFYPISDAGLKIAAHFYNHNMSMQKGKLNAVMFGKILDANQRKALVWDVERGAPNKIIDEPWQSCSCLGGWHYNTSIYNNNQYKSAADVVKLLVDIVSKNGNLLLSVPLRADGTFDEKEEKILNEFGNWMNINKEAIYQTRPWKIFGEGPIADKDVQLNAQGFNEWAYSKADAKEIRFTQTDKNLYATVLGWPEDGKILIRSLAEGNGLYPTKIGRVELLGYGKVSFTRTDKGLVVDIPAKSLKNIAPVLKIRKEGHHHHHH”, which “soluble on expression in E. coli” value is on record?
A: soluble

Q: Which “soluble on expression in E. coli” value does the source give for “MAHHHHHHMLSGITFEIFLFNFEIYHDFSSPLLFSLAIRIVIACGIPSMTNSSVQQVGCRVTYIWLSGKDSHHDIRSKDRTIYISPDDLEKDPKELLRLDMFPVWNFDGSSTGQAEGLITEIHIKPVNAYHCCIPRASSSVPWIVVLAECFLPTGEPTPDNSRAVARRIFDKGLGTHPWFGMEQEYFLVKDGHPYGWCPTCPPASQGPYYCATGSECIRGRKHVDLHYEVCLQMGLKICGTNAEVAFGQWEFQVGPCEGIEMGDQLVVARWVLLRILELEGLDADFRAKPILGDWNGSGLHTNFSTEATRAPGGLEVIYQYIERLKETSSKDIIFYGVDNNERLIGKHETSKLNETTFGIGTRGTSIRIPTAVAAAQSGYMEDRRPAAGADPYLVSSRLFASCLSVDAVELDFSSPRHEREWMASTSKV” here?
A: not soluble

Q: Which “soluble on expression in E. coli” value does the source give for “MSPTLSILIPVYKRDCRRLLEELYKQAEELSVGYEIILGDDCSGEPYTSQYIAYEQEGLCRLVSAEENMGAGRLRNRLAEEAQGEQLLILDSDTLPASPDFIERYLRHASGTTVVCGGFVYPPKSTNPLRQRYGAEVESRSAEERARKPHSGFISMAFMIPRKQMLATGFPPNMGMGYEDILFGERLRQAGIPILHIDNPVEHYHCDTAEGFLATTRSYLDNLYCHREELAELVSLLRAYNLLKRLHLMRMVAALWPLIRSSLEKQLTGAKPSLLLFSLYKLLYVASLSLVCAEKS” here?
A: not soluble

Q: With “MAGKPKLHYFNGRGRMEPIRWLLAAAGVEFEEKFIGSAEDLGKLRNDGSLMFQQVPMVEIDGMKLVQTRAILNYIASKYNLYGKDIKERALIDMYTEGMADLNEMILLLPLCRPEEKDAKIALIKEKTKSRYFPAFEKVLQSHGQDYLVGNKLSRADISLVELLYYVEELDSSLISNFPLLKALKTRISNLPTVKKFLQPGSPRKPPADAKALEEARKIFRF” as the sequence, how does the “soluble on expression in E. coli” value read?
A: soluble

Q: For “MSPQESRRLSIQRCIQSLVHACQCRNANCSLPSCQKMKRVVQHTKGCKRKTNGGCPVCKQLIALCCYHAKHCQENKCPVPFCLNIKHK”, which “soluble on expression in E. coli” value is on record?
A: soluble

Q: Which “soluble on expression in E. coli” value does the source give for “MGSDKIHHHHHHMNSSVKTRILQPLRIGKHIARHPIIQGAMAVRVSGAKLAGAVANAGGVGVIASLGLGLDSPYFDKRKKRSFFTANRLALIDELAKARSISPDGVIGVNILVATKDYSVLAQTAAAQGADIIITGAGLPLALPEYTAAYPDVALVPSVANLEAAQLICETWQSRYHRLPDALIVENCQQVGGHFTQCEQVNIPGFSLELVIRQLRDYCQNHLGARIPLIVSGGISDRTDIDRMIAIGADGVQIGTRFVTTVECDADQRYKDYHLQAQPEDIVTVPSPVGKPSRALHNLFTEQVMSNSSNLEKRCIANCLETCLCRDHGKTYCLLQALAQAARGDVENGLIFSGANAGYTQDIISVPELMTELTQAHTIEVSSSDKY” here?
A: not soluble
